{"source": "the DeepSol protein solubility set"}
{"test": "soluble on expression in E. coli; label from the status in PepcDB or PDB records"}
{"sequence": "MPANELFGDSDPEGDEIFERVRKVQPKSINVTENQKVDPMRKVKIELQAVLVAEKIPISTEEIRRRLLDSYGACPDPKRYNCSTLDDLLQACSESIVHTFGRDGIHRYGPRTTEANQDIIEMVQQQSSSKRPARSFLGSGATNNLSTHGSSFRAFRGPYASEEIAKSRGTPEQFKARHKLGPAKTISRVKNLAEVLKEYADEIGVSHPDEPNRKIVTLAALANKFKQLYCLPAWGKNISESELYIQLNVPPFNEYLHFWRLSEKGDIFVDCIDRDNADPTQKSEQNPSADVSIQSESFGGKSSASAFEQSVVSAPSTIRDQTSDSFDGFNSFEVPPENGSKDSKIFNSNQESIDDYPGNAISRDRTADMTDIALRFGTVSVASQQCPVSSSLVPQNGILRQSRAQEDDNNTSILTIQSSRRNHSVLRHRTIKPRNPTQNLAEVVKTHGSIPYEALSDCDKIIVDLGKNIFKVYATQPGEMMVRLCDPHVDTTTLPLLENNLRDPVESDLRWMTLGNSHIKKQSVKVVKPAMFIAPRGFLLILKDEEREEMDVEKVATMGNILRAVMVAPIVELQRETVRTGSAAVYVYRQGAEVRYYRVLIVGQAKQDGEVLVLLADVDDQYFVDVHLSHLFPIPEEASFKHFPSNVVFATLHGVLGLTLSEQDVMFENIDNDDTKRFVGGYFHGNDDRILNIDMVWKNERGQFEWLSQIVKRRGAVTSSDANIIHFPHSALDVIKSVGPDCSVCFVDYSVRDESATSSLMESTRIVHDSRESMTTTYVGEMPSPIIEEIDATSSFDPKLLNLHSLFDKLIEEQNVTMIVGMFQFVRSLKDLFGDNNEWERLLTYMLTTGKNNNIRL", "soluble on expression in E. coli": "not soluble"}
{"sequence": "MLFLDSVAMKEKPEGREEYPFSVPAMRHLERLEFKTPITFFAGNNGSGKSTLLEGLAAGMTAYAIGNHGDVKGDLYLQHAETVAKAFYFARKKYPKIRMFLRAEDVLGYIRRQNENALDDFRWEREKALKKGEDFPEETPEIFRGIVRNNSLDRRSHGEGFLDIMHRRLHGAGLYFLDEPESPLSPQKQLELAAIIRQAADSGGQLIIATHSPVLLAIPEATIYYFDEDGITERLYDELENIAFLRRFLDRPSKYLDDLEHHHHHH", "soluble on expression in E. coli": "soluble"}
{"sequence": "MGRGRSSSSSSIESSSKSNPFGASSSTRNLSTDLRLGLSFGTSSGTQYFNGGYGYSVAAPAVEDAEYVAAVEEEEENECNSVGSFYVKVNMEGVPIGRKIDLMSLNGYRDLIRTLDFMFNASILWAEEEDMCNEKSHVLTYADKEGDWMMVGDVPWEMFLSTVRRLKISRANYHY", "soluble on expression in E. coli": "soluble"}
{"sequence": "MGSDKIHHHHHHMSDKTKELRNKYNSKNRHKNFGPCLRKVHIEGFRGVQSADLELEFPITAISGLNGSGKSTVGQLAICAYKKPDKSMTYKRLYIKDFFPVSPADPKPISDSAKVVYFYETDDYQKPKEVTVSRVKSSWSGYKRQPERYCYYIGFTVYLPKVERRDLSVYAGVNLQFTEKRDIEAEVVKKMARIIGHKYENVAFQGVSHNGKESEVGIAYRLGYSYSENNMGFGEGRILYTIDKLESSPEQSLFILEEPETSLHESAQHEFAKYLLDVCNRRHHQIILSTHSSVIVNALPPESRKLMIRDEGGVDIRNKISSGQLRSILSSGHVRSLDICVEDNFAKVLLIEVIRMKRKALLKIVEIHAIGSTDAVREAVRILKKTGKKAIAVRDADIGPSEKEGLYSFPGNKPPEKEVFEHSAVKAFFKSKYDLDVEWFFQYKNVSDHHYYAKCIASEIASDESVIQTSAIEEYLKHVNNNFDYLIDAIEKELDNHN", "soluble on expression in E. coli": "not soluble"}
{"sequence": "MDAVNKFSVENWYPHLRKHTFKSHFITLNYNDIHYLMGNIPPDYDSSKLESIFNKILSEFNNKEVFMRLSTRSPKDSKFLFEEASTIMSKDFVYWNENDNKHQQLVSFVASMLKAMKIKSGRKIIETIAQSPRVYNDLLALVSSSNQSDCTTNVILREWHDIRPDHEFRVFVSRRHRKESIVTAISQYFHFLYFDKSPADCFNFLDEEDKKAVIKKFENYVLKSVDPDVAKFLNFSSEQDDDESSDCIREYIVDLALIPVSQYHGEITDENIIEIGANTYVMVVIELNPFAPAATGSGLFNWKNDLMMLWGKASCDYPVFKYRTTPREDLQSVSLLPSNYESVIKSALIKRLETLEHHHHHH", "soluble on expression in E. coli": "not soluble"}
{"sequence": "MSLQRPKVKGMDQTLATSRKTSNACNVLALCTRDNPAILTIAHRGFWTATAENSLASVRAAVAAGVEMIEIDTQATADGRLVVIHDETLDRTTTGKGTVSALPFEVVRAAKLKAGAGGDGADVTDECVPTLEEVLEEARGRITVNIDTKFTRDLPQVMETVLRLGVEDQVLVKTDVDPEAERFEVLGSHWFGRIPHMPMFPVRKGKFAEDLRRIEALKAPMIEVKFTDIADLAEGRAEMERQNIRLWINSLDVSHCLDFNDTRALSNPEAVWGALAEAGTGAIQTDEVEAFTAWLKAGAGETGRAWTREGHHHHHH", "soluble on expression in E. coli": "soluble"}
{"sequence": "MYPADFASQLNVLTLAEMKKTIHDILDFRDEDIWMLFGTLPVFPCLKDDEDQKLLSRLRNANNVTTRNDPDGRSRLNVNVFTGNVIVTDFGDETGTISNIQKDKLTDVFDKWLSSDLAKSLNCHCSEFSCLGPNVLVKNMYYPNMDFKDNERHMHKQPQIIQF", "soluble on expression in E. coli": "not soluble"}
{"sequence": "TGIEQLEFQRESSVSTTLQGVCEPILAILVQGKKEALLCDETYRYSAAQYLVVSVDLPLSAFIVEATPEKPYLGFKLNLDPRQLCDIITAQTNVIEEKKNSVRGLFVSTIDAPLLDCAMRLTRLLDTPQDIPILAPMIIREIYYRLLMGEQGEAV", "soluble on expression in E. coli": "not soluble"}
{"sequence": "MNIERKQAKQKEISSGHSFLEWGMTILKMPPAKRIKMVRDGVKVTHLVGAGRYYGISQAKLSKLLGISDATITRKIRSSGKLGPLESERLARIALIEAEAEKVFDSSDLAKRWMLESNLALGESPLSLLDTDMGADEVRKVLASIAYGGIA", "soluble on expression in E. coli": "not soluble"}
{"sequence": "MGSDKIHHHHHHMPRYARKRSSTGIYHVMLKGIDGRDIFLDDEDKEKFIENMLKARDKGNFELYAYCLMDNHLHILIKESEGIGTSIKRIAVGYVQWHNNKYGRIGHLFQNRYLSEPVETESYLLTVVKYIHQNPLKARIVTQLADYKWSSYLQYLAAYKGDNSHIDPLLIMEYFKIQTEFESYMNEPTNSECLDYKQSSKYTDEILKNIIRESFGINDLIDMPNDMRNALIKDIYQSTGVSIRQLARVLGIGKSIVERALK", "soluble on expression in E. coli": "not soluble"}
{"sequence": "MAHHHHHHMTAHVDRCVFFSKMGACRHGDQCTKLHYRPDTSPTVLFPLMYPNPHAIEHIKDREWNFELDKKYLKKHFEHFYKEVWRTFMEFGRIAELRVVSNLGDHLLGNVYIRFEDPQVATRIVKELRGKKLNDIIVLPELSPVTNFAEACCKEDLENRCQRGEQCNYLHIMKVSRRLLEKLEKEQSKYWKKKERRHEHSSSDRKRSRSRSPADTRW", "soluble on expression in E. coli": "soluble"}
{"sequence": "MGHHHHHHSHMEYSCGTAAIRGTKELGEGQHFWEIKMTSPVYGTLTFFKNRKCIGVAATKLQNKRFYPMVCSTAARSSMKVTRSCASATSLQYLCCHRLRQLRPDSGDTLEGLPLPPGLKQVLHNKLGWVLSMSCSRRKAPVSDPQAATSAHPSSREPRPCQRKRCRRT", "soluble on expression in E. coli": "not soluble"}
{"sequence": "GATITHQEKLLTVDTTAHPFLKALGGHEGTDIFPLFMDPYNGLMVMRASFAPGLTLPLHFHTGTVHMYTISGCWYYTEYPGQKQTAGCYLYEPGGSIHQFNTPRDNEGQTEVIFMLSGCNVNFTQDGTYLGLSDAGVIKNWVDRAIREQDNGLRYIAAAVPTYAA", "soluble on expression in E. coli": "soluble"}
{"sequence": "YVWDTKMNVGLRVGAAAEFMIGSRGFYLAPGLNYTMKGSKTEWDIPEMVPGTYITMVSTRLHYLQLPINAGMRFDLMNDMAVSIEAGPFLAYGIYGTYRQKLEGWKPNNYSTEFFGPTLGGPTNIRWDIGANIIAAFHYKRYYIQIGYEHGFVDIVSGGGSDIPRLNDNRQSSSTTALREKGNNEYAYNRDFFVGIGYRF", "soluble on expression in E. coli": "not soluble"}
{"sequence": "MGSDKIHHHHHHMEVIHPRCAGVDISKKDAKVCVRIQGRGGRSTTSTITTWGSMTGQILGLKEHLLDEHVDLVVMEATGDYWRPFYYLLEDDGLNIILVNAHDARNVPGRKTDVSDAAWLADLGAHGLVRASFVPPPPIRELRDLTRARTIITQERTREIQRLEKLLEDACIKLSSVASNITGVSGRLILQALIDGQTDPAALAEMAQRRLRSKIPELTQALNGRFTEHHRYMTGLYLHRIDAHTADINDLSARIEAAMEPFRFARELLVSIPGFSTTIAEIFIAETGADMSAFATAGQLASWAGTSPGSNESAGRVKSTKTRPGNRYLKGALGIAALSCAKSKNTYLGARYRRIASRRGPAKALVAVEHSILTAAWHMLTTGELYNDPGADYFTRQTPVKTMARAVRQLESLGYQVILEPLQQTG", "soluble on expression in E. coli": "not soluble"}
{"sequence": "MKKFAAVIAVMALCSAPVMAAEQGGFSGPSATQSQAGGFQGPNGSVTTVESAKSLRDDTWVTLRGNIVERISDDLYVFKDASGTINVDIDHKRWNGVTVTPKDTVEIQGEVDKDWNSVEIDVKQIRKVNP", "soluble on expression in E. coli": "soluble"}
{"sequence": "AIASGAYDESAMSDETTDSFWEVGNYKRTVKRIEDGHRLCNDMMSCIQERAKIEKAYSQQLTDWSKRWRQLVERGPQYGTLERAWLAVMTEAEKVSELHQEVKNNLLNEDLEKVKNWQKDAYHKQMMGGFKETKEADEGFRKAQKPWAKKLKELETAKKTYHMACKEEKIASAREANSKGEASVTTDQQKKLQEKVDKCKNDVQKAKEKYEKSLDELNKCTPQYMENMEVVFDQCQQFEEKRLNFLREVLLDTKRHLNLTESQSYATVYRELERTIVSASAQEDLKWFSSVHGPGMHMNWPQFEEFNPDLSHAISKKEKVKRNHDGVTLTQVTHGAEHGTPQTGDRGSVSSYEKNQQYSAEWSDDEQPPTAAQSASETNGGNPFEEDSKGVRVRALYDYEGQEQDELTFKAGDELTKLEDEDEQGWCKGRLDSGQLGLYPANYVEPV", "soluble on expression in E. coli": "soluble"}
{"sequence": "MGSDKIHHHHHHMAKINLIIAETDGAYLKGLVNYISSNFEDTFRITCFTNREYLEKYISSGRISDILLIKTDMFYEGLMKNSIKSIAILSEGGNMDEFNGLPVVKKYQPGEKLCREILNIYYNNNPEVAPCKEVKKQEGSIITLYSPVGGIGKSTIAIEMAKKLSDSNKKVLYLNLEDLQSTLVFFECSTSKNMSDFLYFIKERDENFKEVLKDIVLKDEESGINYFAPVDSVLDIEDLKVDDVKFMLQKLIEVNMYNYIIIDLSSTFNINYKTIFEMSSKIIVPIGQDKLSSVKLQNFLKQLDNLENFSFIQNKYKDNLETIIPHVLLREKKPIIQKIYYDEALESVSSLIYLKNRASTFLRCIDELIMKLL", "soluble on expression in E. coli": "not soluble"}
{"sequence": "MGSDKIHHHHHHMSDVYDYLKESLPGDHSRQATAEAVLQARVAKGFAPAKVLDFGCGDGRSIDLFRRMLPQVDWTGVDIEASPEVASRRRQDGRFVTYDGYELPFPDRSFPLVYSHQVLEHVRKPELALREIARVLEPDGLFIGQTSQFEPYHSYSLWNFTVYGFKRIVEDAGMQLAELRPGIDGFTLMRRTYEGRPPEMSKYFSQESPINEEIEKAAGDKRTQVRNFRKLLFCGQFIFVVQLR", "soluble on expression in E. coli": "not soluble"}
{"sequence": "MAKPFTPEQREELKTRIVELVHQDGRVTIRQLSDETGISRASVGRLCIELVASGDVYNSGYGLFPSEQARKDWQSARKKLSRVKVRKPVVVDPDLIWSLPDGEIRRYDRRLNIICRECRKSEAMQRVLAFYQGNFQEAIL", "soluble on expression in E. coli": "not soluble"}
